Measurements reported in patent publication US20070197430A1, “Conjugates And Therapeutic Uses Thereof” (priority 2004, published 2007).
Values joined by “and” are separate entries in the source; they are usually repeats but may differ in a detail not shown here. Equal values may be shown once. Bridge positions count the residues as written; N and C are the ends. Peptide text beside a SMILES is read from it.

Experiments:
Bcl-w ΔC29 = target: T1, Bcl-w ΔC29 (Homo sapiens, UniProt Q92843); experiment: Alphascreen GST competition assay with biotinylated Bim BH3-26 peptide; format: binding; conditions: Example 14, two values given per peptide
T1 sequence (Q92843 1-164 limits assumed): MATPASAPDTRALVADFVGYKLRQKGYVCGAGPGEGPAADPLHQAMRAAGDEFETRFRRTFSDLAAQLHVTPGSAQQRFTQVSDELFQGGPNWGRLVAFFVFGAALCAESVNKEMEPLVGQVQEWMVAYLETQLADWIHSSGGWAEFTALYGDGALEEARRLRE

Mcl-1 ΔC23 [1] = experiment: Alphascreen GST competition assay with biotinylated BakBH3 peptide; format: binding; conditions: Example 14, two values given per peptide
Experimental: (§1) Using solution competition assays and Alphascreen GST-detection as described below, the constrained peptide of Example 2 (peptide A) was assessed for competition binding to Bcl-2 homologues, Bcl-w ΔC29, Bcl-xL ΔC25 and Mcl-1 ΔC23.
(§2) All the assays were performed using 384-well white plates in a total volume of 20 μL. The assay buffer is 50 mM HEPES, 10 mM DTT, 100 mM NaCl, 0.05% Tween 20, 0.1 mg/mL casein, pH 7.4. The bead buffer is 50 mM Tris, 1% Tween 20, 0.1 mg/mL casein, pH 7.5.
(§3) For the GST-Bcl-wΔC29 protein assay, protein (0.10 nM), acceptor beads (10 μg/mL), 50% assay buffer and 50% bead buffer were incubated together for 30 minutes. At the same time, biotinylated BimBH3 peptide (Biotin-[…]-OH) (3 nM), donor beads (10 μg/mL), 50% assay buffer and 50% bead buffer were incubated to get for 30 minutes. For the competition binding assay, protein acceptor bead solution (10 μL) and the candidate compound, A, L1 or L2, were added into each well and incubated for 30 minutes, then biotinylated BimBH3 peptide donor bead solution (10 μL) was added into each well. The total DMSO concentration in each well was then adjusted to 0.5% to 2%. Plates were covered with aluminium foil and incubated at room temperature for 4 hours before reading in a Packard Fusion™ reader with excitation at 680 nm and emission at 520-620 nm. […]

Bcl-xL ΔC25 [2] = target: T2, Bcl-xL ΔC25 (Homo sapiens, UniProt Q07817); experiment: Alphascreen GST competition assay with biotinylated BimBH3 peptide; format: binding; conditions: Example 14, two values given per peptide
Experimental: as §1, §2, §3
Target sequence in this assay (Q07817 1-208 limits assumed): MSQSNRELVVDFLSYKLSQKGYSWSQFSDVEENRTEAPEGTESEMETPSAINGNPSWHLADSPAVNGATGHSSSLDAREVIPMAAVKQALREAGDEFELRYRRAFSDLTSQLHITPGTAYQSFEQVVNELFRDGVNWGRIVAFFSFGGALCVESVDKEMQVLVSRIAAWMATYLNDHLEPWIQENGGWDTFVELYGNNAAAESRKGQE

Mcl-1 ΔC23 [3] = experiment: Surface plasmon resonance direct binding (Biacore S51); conditions: SPR dissociation constant
Source text: (§4) In separate assay experiments, surface plasmon resonance (SPR) experiments using a Biacore S51 Biosensor were used as proof of direct binding of peptide A to Bcl-w ΔC29, Bcl-xL ΔC25 and Mcl-1 ΔC23. This technique also has the advantage of yielding dissociation constants, which are shown below.

Bcl-xL ΔC25 [4] = target: T2, Bcl-xL ΔC25; experiment: as above; conditions: SPR dissociation constant
Source text: as §4

[5] = Circular dichroism, alpha-helical content of peptides; format: physicochemical; conditions: 30% aqueous trifluoroethanol
Experimental: Circular dichroism spectra were obtained using a Jasco Model J-710 spetropolarimeter at 20° C. using the following parameters: path length, 2 mm; step resolution, 0.1 nm; speed, 20 nm/min, accumulation, 4; response, 1 second; bandwidth, 1.0 nm. The peptides were analysed at a concentration of 0.5 mg/mL in 30% aqueous TFE. The alpha-helical content of the peptides were determined by methods described in Yang et al (1986), involving comparisons of spectra with model helical peptides.

Bcl-2 ΔC22 [6] = target: T3, Bcl-2 ΔC22 (Homo sapiens, UniProt P10415); experiment: Competition assay with biotinylated Bim-BH3 peptide; format: binding; conditions: text says Bcl-2 and Bcl-xL
Source text: Alphascreen (Amplified Luminsecent Proximity Homogenous Assay) is a bead based technology which measures a biological interaction between molecules. The assay consists of two hydrogel coated beads which, when bought into close proximity by a binding interaction, allow a transfer of singlet oxygen from a donor bead to an acceptor bead.
Upon binding a photosensitiser in the donor bead converts ambient oxygen to a more excited singlet state. This singlet oxygen then diffuses across to react with a chemiluminescer in the acceptor bead. Fluorophores within the same bead are activated, resulting in the emission of light.
Target sequence in this assay (P10415 1-217 limits assumed): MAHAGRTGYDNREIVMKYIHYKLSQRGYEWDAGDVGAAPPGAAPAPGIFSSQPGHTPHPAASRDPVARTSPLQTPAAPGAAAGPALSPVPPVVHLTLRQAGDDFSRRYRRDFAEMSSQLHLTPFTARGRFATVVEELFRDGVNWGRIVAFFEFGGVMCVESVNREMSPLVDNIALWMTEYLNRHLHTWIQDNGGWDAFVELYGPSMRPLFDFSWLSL

Bcl-2 ΔC22 [7] = target: T3, Bcl-2 ΔC22; experiment: competition assay; competitor: biotinylated Bim-BH3 peptide
[8] = target: GST tagged Bcl w delta C29 protein (UniProt Q92843); experiment: as above
[9] = target: 6-His tagged Bcl w delta C10 protein (UniProt Q92843); experiment: as above
Bcl-xL ΔC25 [10] = target: T2, Bcl-xL ΔC25; experiment: AlphaScreen GST detection; competitor: biotinylated BimBH3 peptide; second of two values
[11] = target: GST tagged Bcl w delta C29 protein (UniProt Q92843); experiment: as above
Mcl-1 ΔC23 [12] = target: Mcl-1 ΔC23 (UniProt Q07820); experiment: SPR, Biacore S51, direct binding
Bcl-xL ΔC25 [13] = target: T2, Bcl-xL ΔC25; experiment: SPR, Biacore S51, direct binding
Mcl-1 ΔC23 [14] = target: Mcl-1 ΔC23 (UniProt Q07820); experiment: AlphaScreen GST detection; competitor: biotinylated BakBH3 peptide
Mcl-1 ΔC23 [15] = target: Mcl-1 ΔC23 (UniProt Q07820); experiment: AlphaScreen GST detection; competitor: biotinylated BakBH3 peptide; second of two values
Bcl-xL ΔC25 [16] = target: T2, Bcl-xL ΔC25; experiment: AlphaScreen GST detection; competitor: biotinylated BimBH3 peptide
[17] = target: GST tagged Bcl w delta C29 protein (UniProt Q92843); experiment: as above
[18] = target: GST tagged Bcl w delta C29 protein (UniProt Q92843); experiment: competition assay; competitor: biotinylated BIM-BH3 peptide
[19] = target: GST tagged Bcl w delta C29 protein (UniProt Q92843); experiment: competition assay; competitor: biotinylated Bim BH3 peptide

CC[C@H](C)[C@H](NC(C)=O)C(=O)N[C@@H](C)C(=O)N[C@@H](CCC(N)=O)C(=O)N[C@@H](CCC(N)=O)C(=O)N[C@@H](CC(C)C)C(=O)N[C@@H](CCCNC(=N)N)C(=O)N[C@@H](CCCNC(=N)N)C(=O)N[C@H](C(=O)NCC(=O)N[C@@H](CC(=O)O)C(=O)N[C@@H](CCC(N)=O)C(=O)N[C@@H](Cc1ccccc1)C(N)=O)[C@@H](C)CC [Peptide L2] (Ac-IAQQLRRIGDQF-NH2)
IC50 (Bcl-w ΔC29): 120 nM
IC50 (Mcl-1 ΔC23 [1]): 650 nM and 660 nM
IC50 (Bcl-xL ΔC25 [2]): 960 nM and 890 nM
Kd (Mcl-1 ΔC23 [3]): 920 nM
Kd (Bcl-xL ΔC25 [4]): 370 nM

CC[C@H](C)[C@H](NC(C)=O)C(=O)N[C@@H](C)C(=O)N[C@@H](CCC(N)=O)C(=O)N[C@H]1CCC(=O)NCC(=O)NCCNC(=O)CC[C@@H](C(=O)N[C@@H](Cc2ccccc2)C(N)=O)NC(=O)[C@H](CC(=O)O)NC(=O)CNC(=O)[C@H]([C@@H](C)CC)NC(=O)[C@H](CCCNC(=N)N)NC(=O)[C@H](CCCNC(=N)N)NC(=O)[C@H](CC(C)C)NC1=O [D, Ac-IAQ-E-LRRIGD-E-F-NH2] (HELM PEPTIDE1{[ac].I.A.Q.E.L.R.R.I.G.D.E.F.[am]}|CHEM1{[O=C(CN[*:1])NCCN[*:2]]}$PEPTIDE1,CHEM1,5:R3-1:R1|PEPTIDE1,CHEM1,12:R3-1:R2$$$V2.0)
% Helicity [5]: 16%

CC[C@H](C)[C@H](NC(C)=O)C(=O)N[C@@H](C)C(=O)N[C@@H](CCC(N)=O)C(=O)N[C@H]1CCC(=O)NCCCCCCNC(=O)CC[C@@H](C(=O)N[C@@H](Cc2ccccc2)C(N)=O)NC(=O)[C@H](CC(=O)O)NC(=O)CNC(=O)[C@H]([C@@H](C)CC)NC(=O)[C@H](CCCNC(=N)N)NC(=O)[C@H](CCCNC(=N)N)NC(=O)[C@H](CC(C)C)NC1=O [C, Ac-IAQ-E-LRRIGD-E-F-NH2] (HELM PEPTIDE1{[ac].I.A.Q.E.L.R.R.I.G.D.E.F.[am]}|CHEM1{[C(CCCN[*:2])CCN[*:1]]}$PEPTIDE1,CHEM1,5:R3-1:R1|PEPTIDE1,CHEM1,12:R3-1:R2$$$V2.0)
% Helicity [5]: 39%
affinity over the unconstrained 12-mer, in words (Bcl-2 ΔC22 [6]): outstanding increases in affinity

CC[C@H](C)[C@H](NC(C)=O)C(=O)N[C@@H](C)C(=O)N[C@@H](CCC(N)=O)C(=O)N[C@@H](CCC(=O)O)C(=O)N[C@@H](CC(C)C)C(=O)N[C@@H](CCCNC(=N)N)C(=O)N[C@@H](CCCNC(=N)N)C(=O)N[C@H](C(=O)NCC(=O)N[C@@H](CC(=O)O)C(=O)N[C@@H](CCC(=O)O)C(=O)N[C@@H](Cc1ccccc1)C(N)=O)[C@@H](C)CC [Peptide L1] (Ac-IAQELRRIGDEF-NH2)
IC50 (Bcl-w ΔC29): 820 nM and 800 nM
IC50 (Mcl-1 ΔC23 [1]): 400 nM and 360 nM
IC50 (Bcl-xL ΔC25 [2]): 7000 nM and 6300 nM
Kd (Mcl-1 ΔC23 [3]): 1200 nM
Kd (Bcl-xL ΔC25 [4]): 5200 nM
% Helicity [5]: 9%

Ac-EIAQELREIGDEF-NH2 (linker 1-8 via 1,5‑diaminopentane) [Peptide A of Example 7: Ac-E-IAQELR-E-IGDEF-NH2 with a 1,5-diaminopentane linker (first position)]
IC50 (Bcl-2 ΔC22 [7]): 26000 nM
IC50 [8]: 1800 nM
IC50 [9]: 2600 nM

Ac-IAQELRRIGDEF-NH2 (linker 4-11 via 1,5‑diaminopentane) [Acetyl-IAQ(E1)LRRIGD(E2)F-amide with a 1,5-diaminopentane linker (second position)]
IC50 (Bcl-xL ΔC25 [10]): 54 nM
IC50 [11]: 34 nM
Kd (Mcl-1 ΔC23 [12]): 10 nM
Kd (Bcl-xL ΔC25 [13]): 10 nM
IC50 (Mcl-1 ΔC23 [14]): 3 nM
IC50 (Mcl-1 ΔC23 [15]): 3 nM
IC50 (Bcl-xL ΔC25 [16]): 57 nM
IC50 [17]: 40 nM
IC50 (Bcl-2 ΔC22 [7]): 290 nM
IC50 [8]: 150 nM
IC50 [9]: 65 nM

Ac-IWIAQELRRIGDEFNA-NH2 (linker 6-13 via ‑NHCH2C(═O)(CH2)2NH2‑)
IC50 [18]: 0.3 nM

Ac-IWIAQELRRIGDEFNA-NH2 (linker 6-13 via 1,5‑diaminopentane) [Peptide E: constrained 16-mer with a pentane linker tethering the two glutamate residues]
IC50 [18]: 0.5 nM

Ac-IAQELRRIGDEF-NH2 [Linear 12mer Ac-…-NH2]
IC50 (Bcl-xL ΔC25 [10]): 6300 nM
IC50 [11]: 800 nM
Kd (Mcl-1 ΔC23 [12]): 1200 nM
Kd (Bcl-xL ΔC25 [13]): 5200 nM
IC50 (Mcl-1 ΔC23 [14]): 400 nM
IC50 (Mcl-1 ΔC23 [15]): 360 nM
IC50 (Bcl-xL ΔC25 [16]): 7000 nM
IC50 [17]: 820 nM
IC50 (Bcl-2 ΔC22 [7]): 240000 nM
IC50 [8]: 4700 nM
IC50 [9]: 870 nM

B1: Peptide D: Ac-IAQ-E-LRRIGD-E-F-NH2 with a -NHCH2C(═O)NHCH2CH2NH- linker (peptide)
peptide: IAQELRRIGDEF
HELM: PEPTIDE1{[ac].I.A.Q.E.L.R.R.I.G.D.E.F.[am]}|CHEM1{[O=C(CN[*:1])NCCN[*:2]]}$PEPTIDE1,CHEM1,5:R3-1:R1|PEPTIDE1,CHEM1,12:R3-1:R2$$$V2.0
SMILES: CC[C@H](C)[C@H](NC(C)=O)C(=O)N[C@@H](C)C(=O)N[C@@H](CCC(N)=O)C(=O)N[C@H]1CCC(=O)NCC(=O)NCCNC(=O)CC[C@@H](C(=O)N[C@@H](Cc2ccccc2)C(N)=O)NC(=O)[C@H](CC(=O)O)NC(=O)CNC(=O)[C@H]([C@@H](C)CC)NC(=O)[C@H](CCCNC(=N)N)NC(=O)[C@H](CCCNC(=N)N)NC(=O)[C@H](CC(C)C)NC1=O
IC50 (Bcl-2 ΔC22 [7]): 6900 nM
IC50 [8]: 160 nM
IC50 [9]: 40 nM

Ac-IAQQLRRIGDQF-NH2 [L2 Ac-…-NH2]
IC50 (Bcl-xL ΔC25 [10]): 890 nM
Kd (Mcl-1 ΔC23 [12]): 920 nM
IC50 (Mcl-1 ΔC23 [14]): 650 nM
IC50 (Mcl-1 ΔC23 [15]): 660 nM
IC50 (Bcl-xL ΔC25 [16]): 960 nM

Ac-IAQELRRIGDEF-NH2 (linker 4-11 via 1,6‑diaminohexane) [Peptide C: Ac-IAQ-E-LRRIGD-E-F-NH2 with a 1,6-diaminohexane linker]
IC50 (Bcl-2 ΔC22 [7]): 2600 nM
IC50 [8]: 120 nM
IC50 [9]: 230 nM

Ac-IWIAQELRRIGDEFNA-NH2 [linear 16-mer Ac-…-NH2]
IC50 [19]: 2.5 nM
IC50 [18]: 2.5 nM
